{"source": "patent US20210008207A1", "about": "(TECHNISCHE UNIVERSIT T M NCHEN, published 2021)", "key": {"[1]": {"target": "human CEACAM1 (hu-CEACAM1-4L) on stably transfected CHO cells (human) (UniProt P13688)", "assay": "flow cytometry; CHO transfectant 'CEACAM1' with HopQ as in Fig. 6 b; number in the panel = median; untransfected CHO with HopQ: 6 [cont.) c]"}, "[2]": {"target": "CEACAM3 on transfected CHO cells (human) (UniProt P40198)", "sequence (P40198 35-252)": "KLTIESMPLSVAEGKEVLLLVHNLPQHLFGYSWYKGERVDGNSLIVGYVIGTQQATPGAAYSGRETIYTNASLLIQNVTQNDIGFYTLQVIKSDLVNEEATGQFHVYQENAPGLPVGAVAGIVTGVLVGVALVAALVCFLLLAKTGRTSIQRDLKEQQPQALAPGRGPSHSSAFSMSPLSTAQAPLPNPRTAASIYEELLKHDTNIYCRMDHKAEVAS", "assay": "flow cytometry; CHO transfectant 'CEACAM3' with HopQ as in Fig. 6 b; number in the panel = median; untransfected CHO with HopQ: 6 [cont.) c]"}, "[3]": {"target": "CEACAM4 on transfected CHO cells (human) (UniProt O75871)", "sequence (O75871 36-244)": "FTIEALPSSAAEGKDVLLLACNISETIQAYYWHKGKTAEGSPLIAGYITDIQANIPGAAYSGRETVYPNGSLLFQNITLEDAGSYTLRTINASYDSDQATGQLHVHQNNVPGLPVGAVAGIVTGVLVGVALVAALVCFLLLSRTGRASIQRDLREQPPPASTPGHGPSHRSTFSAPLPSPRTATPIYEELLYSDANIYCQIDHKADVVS", "assay": "flow cytometry; CHO transfectant 'CEACAM4' with HopQ as in Fig. 6 b; number in the panel = median; untransfected CHO with HopQ: 6 [cont.) c]"}, "[4]": {"target": "CEACAM5 on transfected CHO cells (human) (UniProt P06731)", "assay": "flow cytometry; CHO transfectant 'CEACAM5' with HopQ as in Fig. 6 b; number in the panel = median; untransfected CHO with HopQ: 6 [cont.) c]"}, "[5]": {"target": "CEACAM6 on transfected CHO cells (human) (UniProt P40199)", "assay": "flow cytometry; CHO transfectant 'CEACAM6' with HopQ as in Fig. 6 b; number in the panel = median; untransfected CHO with HopQ: 6 [cont.) c]"}, "[6]": {"target": "CEACAM7 on transfected CHO cells (human) (UniProt Q14002)", "sequence (Q14002 36-242)": "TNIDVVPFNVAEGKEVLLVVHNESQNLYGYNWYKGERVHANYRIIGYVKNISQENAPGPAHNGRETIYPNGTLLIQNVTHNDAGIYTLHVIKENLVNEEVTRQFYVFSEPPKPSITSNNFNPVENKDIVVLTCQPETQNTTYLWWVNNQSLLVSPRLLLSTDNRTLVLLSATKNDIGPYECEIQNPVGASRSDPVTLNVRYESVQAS", "assay": "flow cytometry; CHO transfectant 'CEACAM7' with HopQ as in Fig. 6 b; number in the panel = median; untransfected CHO with HopQ: 6 [cont.) c]"}, "[7]": {"target": "CEACAM8 on transfected CHO cells (human) (UniProt P31997)", "sequence (P31997 35-320)": "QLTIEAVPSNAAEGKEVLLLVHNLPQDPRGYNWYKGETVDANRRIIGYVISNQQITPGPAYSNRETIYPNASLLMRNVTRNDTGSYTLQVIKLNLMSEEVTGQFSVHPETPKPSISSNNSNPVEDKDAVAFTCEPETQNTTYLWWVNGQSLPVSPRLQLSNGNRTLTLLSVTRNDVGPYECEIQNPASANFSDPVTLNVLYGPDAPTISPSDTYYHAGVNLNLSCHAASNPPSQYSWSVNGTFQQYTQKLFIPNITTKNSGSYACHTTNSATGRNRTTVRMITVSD", "assay": "flow cytometry; CHO transfectant 'CEACAM8' with HopQ as in Fig. 6 b; number in the panel = median; untransfected CHO with HopQ: 6 [cont.) c]"}, "[8]": {"target": "CEACAMs endogenously expressed on AGS gastric cancer cells (CEACAM1, CEACAM5 and CEACAM6)", "assay": "flow cytometry; AGS cells with myc-His-tagged HopQ, anti c-myc mAb, FITC goat anti-mouse F(ab')2; thin line: control IgG; number in the panel = median"}, "[9]": {"target": "CEACAMs endogenously expressed on MKN45 gastric cancer cells (CEACAM1, CEACAM5 and CEACAM6)", "assay": "flow cytometry; MKN45 cells with myc-His-tagged HopQ, anti c-myc mAb, FITC goat anti-mouse F(ab')2; thin line: control IgG; number in the panel = median"}, "[10]": {"target": "human CEACAM1 (hu-CEACAM1-4L) on stably transfected CHO cells (human) (UniProt P13688)", "assay": "flow cytometry; CHO-CEACAM1 cells with myc-His-tagged HopQ, anti c-myc mAb, FITC goat anti-mouse F(ab')2; thin line: control IgG; number in the panel = median"}, "[11]": {"target": "CEACAMs endogenously expressed on AGS gastric cancer cells (CEACAM1, CEACAM5 and CEACAM6)", "assay": "cell-based or functional assay"}, "[12]": {"target": "human CEACAM1-Fc (extracellular domains N-A1-B1-A2 fused to a human heavy chain Fc-domain) (human) (UniProt P13688)"}, "[13]": {"target": "T1, human CEACAM1-Fc (extracellular domains N-A1-B1-A2 fused to a human heavy chain Fc-domain) (human, UniProt P13688 35-428)", "T1 construct": "extracellular domain; Made in HEK293 cells; also called hu-CEACAM1-Fc; not shown: human heavy chain Fc-domain", "T1 sequence": "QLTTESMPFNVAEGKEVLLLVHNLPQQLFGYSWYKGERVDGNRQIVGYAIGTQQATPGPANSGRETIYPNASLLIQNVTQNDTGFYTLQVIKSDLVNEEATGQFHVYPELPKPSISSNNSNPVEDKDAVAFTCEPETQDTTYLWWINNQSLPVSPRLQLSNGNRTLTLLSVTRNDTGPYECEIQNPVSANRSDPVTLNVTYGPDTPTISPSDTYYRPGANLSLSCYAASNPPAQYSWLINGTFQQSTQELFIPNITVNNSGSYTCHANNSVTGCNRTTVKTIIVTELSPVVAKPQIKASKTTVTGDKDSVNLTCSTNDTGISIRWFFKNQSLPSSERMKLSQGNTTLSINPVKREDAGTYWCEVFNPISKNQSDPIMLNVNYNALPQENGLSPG", "assay": "pull-down of live bacteria with CEACAM-Fc; western blot and flow cytometry with α-hu-IgG-FITC [cont.) c]"}, "[14]": {"target": "T2, recombinant human CEACAM5-Fc (Sino Biological Inc.) (human, UniProt P06731 35-685)", "T2 construct": "also called hu-CEACAM5-Fc; not shown: Fc part of the bought fusion; not described", "T2 sequence": "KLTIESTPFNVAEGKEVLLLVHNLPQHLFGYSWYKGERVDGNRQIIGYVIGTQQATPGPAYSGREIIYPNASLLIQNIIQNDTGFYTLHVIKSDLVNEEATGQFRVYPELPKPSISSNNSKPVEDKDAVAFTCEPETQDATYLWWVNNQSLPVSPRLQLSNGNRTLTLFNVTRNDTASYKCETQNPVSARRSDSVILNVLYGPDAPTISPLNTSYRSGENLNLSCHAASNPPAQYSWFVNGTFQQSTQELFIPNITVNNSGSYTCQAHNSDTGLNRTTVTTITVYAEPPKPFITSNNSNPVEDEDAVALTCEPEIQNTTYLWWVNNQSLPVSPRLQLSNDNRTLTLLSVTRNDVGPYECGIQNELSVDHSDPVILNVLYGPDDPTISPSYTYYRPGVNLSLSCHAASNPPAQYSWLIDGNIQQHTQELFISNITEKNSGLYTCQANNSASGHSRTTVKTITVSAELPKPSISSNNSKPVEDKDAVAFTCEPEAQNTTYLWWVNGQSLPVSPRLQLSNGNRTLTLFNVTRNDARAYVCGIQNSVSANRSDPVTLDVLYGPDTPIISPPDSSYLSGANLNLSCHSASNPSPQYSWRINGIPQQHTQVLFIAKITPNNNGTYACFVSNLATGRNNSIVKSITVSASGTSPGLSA", "assay": "pull-down of live bacteria with CEACAM-Fc; western blot and flow cytometry with α-hu-IgG-FITC [cont.) c]"}, "[15]": {"target": "T3, human CEACAM6-Fc (extracellular domains N-A-B fused to a human heavy chain Fc-domain) (human, UniProt P40199 35-320)", "T3 construct": "extracellular domain; Made in HEK293 cells; also called hu-CEACAM6-Fc; not shown: human heavy chain Fc-domain", "T3 sequence": "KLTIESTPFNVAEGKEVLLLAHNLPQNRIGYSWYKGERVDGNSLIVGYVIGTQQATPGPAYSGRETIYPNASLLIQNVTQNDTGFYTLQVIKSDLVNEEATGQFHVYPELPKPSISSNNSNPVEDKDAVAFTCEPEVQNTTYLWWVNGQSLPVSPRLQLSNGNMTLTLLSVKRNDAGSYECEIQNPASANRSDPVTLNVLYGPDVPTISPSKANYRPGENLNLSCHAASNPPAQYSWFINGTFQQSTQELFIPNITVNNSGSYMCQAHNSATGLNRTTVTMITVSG", "assay": "pull-down of live bacteria with CEACAM-Fc; western blot and flow cytometry with α-hu-IgG-FITC [cont.) c]"}}, "data": [{"molecule": "H. pylori strain P12 derived, myc and 6x His-tagged recombinant HopQ", "values": [{"measurement": "median relative fluorescence (FL1-H)", "setting": "[1]", "result": 63}, {"measurement": "median relative fluorescence (FL1-H)", "setting": "[2]", "result": 18}, {"measurement": "median relative fluorescence (FL1-H)", "setting": "[3]", "result": 6}, {"measurement": "median relative fluorescence (FL1-H)", "setting": "[4]", "result": 136}, {"measurement": "median relative fluorescence (FL1-H)", "setting": "[5]", "result": 12}, {"measurement": "median relative fluorescence (FL1-H)", "setting": "[6]", "result": 6}, {"measurement": "median relative fluorescence (FL1-H)", "setting": "[7]", "result": 6}, {"measurement": "median relative fluorescence (FL1-H)", "setting": "[8]", "result": 32}, {"measurement": "median relative fluorescence (FL1-H)", "setting": "[9]", "result": 155}, {"measurement": "median relative fluorescence (FL1-H)", "setting": "[10]", "result": 18}]}, {"molecule": "HopQ insertion domain (HopQ-ID) representing peptide (aa 190-218), HA-tagged, synthetic", "values": [{"measurement": "P12-induced phosphorylation of CagA, concentration needed against HopQ^AD (fold higher concentration than HopQ^AD)", "setting": "[11]", "result": "10 to 20"}]}, {"molecule": "Outer membrane protein babA", "values": [{"measurement": "Score (Sequest)", "setting": "[12]", "result": 8}]}, {"molecule": "Outer membrane protein hopC", "values": [{"measurement": "Score (Sequest)", "setting": "[12]", "result": 14.4}]}, {"molecule": "Outer membrane protein hopZ", "values": [{"measurement": "Score (Sequest)", "setting": "[12]", "result": 31.7}]}, {"molecule": "Outer membrane protein sabA", "values": [{"measurement": "Score (Sequest)", "setting": "[12]", "result": 6.66}]}, {"molecule": "Outer membrane protein sabB", "values": [{"measurement": "Score (Sequest)", "setting": "[12]", "result": 23.4}]}, {"molecule": "HopQ of H. pylori strain P12, on live wild-type bacteria (compared with the isogenic P12ΔhopQ mutant) (other) AEDNGVFLSVGYQIGEAVQKVKNADKVQKLSDTYEQLSRLLTNDNGTNSKTSAQAINQAVNNLNERAKTLAGGTTNSPAYQATLLALRSVLGLWNSMGYAVICGGYTKSPGENNQKNFHYTDENGNGTTINCGGSTNSNGTHSSNGTNTLKADKNVSLSIEQYEKIHESYQILSKALKQAGLAPLNSKGEKLEAHVTTSKYQQDSQTKTTTSVIDTTNDAQNLLTQAQTIVNTLKDYCPMLIAKSSSGSGGGAATNTPSWQTAGGGKNSCETFGAEFSAASDMINNAQKIVQETQQLSANQPKNITQPHNLNLNTPSSLTALAQKMLKNAQSQAEILKLANQVESDFNKLSSGHLKDYIGKCDMSAISSTNMTMQSQKNNWGNGCAGVEETLTSLKTSAADFNNQTPQINQAQNLANTLIQELGNNPFRNMGMIASSTTNNGALNGLGVQVGYKQFFGEKKRWGLRYYGFFDYNHAYIKSNFFNSASDVWTYGVGSDLLFNFINDKNTNFLGKNNQISFGLFGGIALAGTSWLNSQFVNLKTISNVYSAKVNTANFQFLFNLGLRTNLARPKKKDSHHAAQHGIELGVKIPTINTNYYSFLDTKLEYRRLYSVYLNYVFAY", "values": [{"measurement": "binding result", "setting": "[13]", "result": "binds"}, {"measurement": "binding result", "setting": "[14]", "result": "binds"}, {"measurement": "binding result", "setting": "[15]", "result": "binds"}]}]}
